Test results from publication PMC7084690, “N-terminal Backbone Pairing Shifts in CCL5-^12AAA^14 Dimer Interface: Structural Significance of the FAY Sequence” (International Journal of Molecular Sciences, 2020).
Numbering of substitutions follows the chain as printed. Names and notes keep the numbering of the source. Blank lines part the entries; values can stand above or below the binder they belong to.

Legend:
[1] = target: T1, CCL5-F12A (human), P13501; test: NMR titration; pH titration followed by 1H,15N-HSQC; this point pH 3.2; 0.2 mM 15N-labelled protein, 25 mM sodium acetate, 150 mM NaCl, 10% D2O, 298 K; monomer to dimer; conditions: remark: other sources report otherwise
T1 chain: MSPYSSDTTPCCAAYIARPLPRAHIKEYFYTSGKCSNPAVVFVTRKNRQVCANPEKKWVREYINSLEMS

[2] = target: the molecule itself; test: as above
[3] = target: the molecule itself; test: NMR backbone relaxation (15N-R1, 15N-R2, 1H-15N NOE); pH 3.2, 298 K, 600 MHz, in the absence or presence of 180 mM ammonium sulfate; oligomeric state from R1, R2 and the R2/R1 ratio; monomer to dimer
[4] = target: the molecule itself; test: NMR titration; pH titration followed by 1H,15N-HSQC; this point pH 5.0 (for the wild type maintained until pH 6.0); 0.2 mM 15N-labelled protein, 25 mM sodium acetate, 150 mM NaCl, 10% D2O, 298 K; dimers to soluble oligomers, read from the loss of resonance intensity

stoichiometry N [1]: 2
B1: CCL5-F12A, P13501 24-91 (natural protein)
chain: T1 chain

B2: human CC-type chemokine ligand 5 (CCL5) (natural protein)
chain: T1 chain with A13F
notes: starting Met residue (M0) that precedes residues 1-68 of the mature CCL5; CCL5 (RANTES), human, residues 1-68 of the mature CCL5; numbers count on: the mature protein; 15N-labelled for the NMR experiments; vector pET43.1a(+); also called RANTES; native CCL5
stoichiometry N [2]: 2

B3: CCL5-12AAA14 (natural protein, human)
chain: T1 chain with Y15A
notes: starting Met residue (M0) that precedes residues 1-68 of the mature CCL5; numbers count on: the mature protein; 15N- or 15N,13C-labelled for the NMR experiments; In the crystal the first five N-terminal residues were not modelled; also called 12AAA14 mutant
stoichiometry N [3]: 2

B4: CCL5-Y14A (natural protein, human)
chain: T1 chain with A13F, Y15A
notes: starting Met residue (M0) that precedes residues 1-68 of the mature CCL5; CCL5 (RANTES), human, residues 1-68 of the mature CCL5, with Y14A; numbers count on: the mature protein; 15N-labelled for the NMR experiments
binding result [4]: binds
